Measurements reported in publication PMC11189522, “Exploring the sequence-function space of microbial fucosidases” (Communications Chemistry, 2024).

Key:
[1] = tested on: C[C@@H]1O[C@@H](Oc2ccc([N+](=O)[O-])cc2Cl)[C@@H](O)[C@H](O)[C@@H]1O; experiment: purified protein; conditions: pH 6.0; 37.0 °C
BaGH29^26A = molecular target: T1, BaGH29^26A (Bifidobacterium asteroides, UniProt A0A0F4KU40); experiment: X-ray crystallography; type: binding; conditions: co-crystallised with 5 mM 2'FL; active site
T1 construct: gene JF69_08700

purified protein [2] = substrate: C[C@@H]1O[C@@H](Oc2ccc([N+](=O)[O-])cc2Cl)[C@@H](O)[C@H](O)[C@@H]1O; experiment: purified protein; type: biochemical, Sphaerochaeta globosa; conditions: 50 mM citrate pH 6, 37 °C
purified protein [3] = substrate: C[C@@H]1O[C@@H](Oc2ccc([N+](=O)[O-])cc2Cl)[C@@H](O)[C@H](O)[C@@H]1O; experiment: purified protein; type: biochemical, Niastella yeongjuensis; conditions: 50 mM citrate pH 6, 37 °C
purified protein [4] = substrate: C[C@@H]1O[C@@H](Oc2ccc([N+](=O)[O-])cc2Cl)[C@@H](O)[C@H](O)[C@@H]1O; experiment: purified protein; type: biochemical, Sphingopyxis terrae; conditions: 50 mM citrate pH 6, 37 °C
purified protein [5] = substrate: C[C@@H]1O[C@@H](Oc2ccc([N+](=O)[O-])cc2Cl)[C@@H](O)[C@H](O)[C@@H]1O; experiment: purified protein; conditions: pH 6.0; 37.0 °C; remark: listed apart in the source
purified protein [6] = substrate: C[C@@H]1O[C@@H](Oc2ccc([N+](=O)[O-])cc2Cl)[C@@H](O)[C@H](O)[C@@H]1O; experiment: purified protein; type: biochemical, Bifidobacterium asteroides; conditions: 50 mM citrate pH 6, 37 °C
purified protein [7] = substrate: C[C@@H]1O[C@@H](Oc2ccc([N+](=O)[O-])cc2Cl)[C@@H](O)[C@H](O)[C@@H]1O; experiment: purified protein; type: biochemical, Porphyromonas gingivalis; conditions: 50 mM citrate pH 6, 37 °C
purified protein [8] = substrate: C[C@@H]1O[C@@H](Oc2ccc([N+](=O)[O-])cc2Cl)[C@@H](O)[C@H](O)[C@@H]1O; experiment: purified protein; type: biochemical, Streptococcus mitis; conditions: 50 mM citrate pH 6, 37 °C
purified protein [9] = substrate: C[C@@H]1O[C@@H](Oc2ccc([N+](=O)[O-])cc2Cl)[C@@H](O)[C@H](O)[C@@H]1O; experiment: purified protein; type: biochemical, Tannerella forsythia; conditions: 50 mM citrate pH 6, 37 °C

FbGH29^26A (Firmicutes bacterium CAG:345)
Km [1]: 188.10 ± 32.870 µM

BsGH29^44B (Bacteroides sp. SM23_62)
Km [1]: 299.60 ± 25.340 µM

C[C@@H]1O[C@@H](O)[C@@H](O)[C@H](O)[C@@H]1O [Fuc]
X-ray crystallography (BaGH29^26A): resulting in a complex with Fuc bound in the active site

LaGH29^3A (Lysobacter antibioticus)
Km [1]: 208.10 ± 33.240 µM

RsGH29^3A (Rhodopirellula sp. SWK7)
Km [1]: 668.00 ± 69.040 µM

B1: SgGH29^9A (Sphaerochaeta globosa str. Buddy) (protein)
chain: MKHEAVQQWLDLQFGLFIHFGLYSLPGGVWKGERITRGYSEQILSHGYLPQADYEALTEQFSLPEFNPKHIVTTAKQAGMRYLVITTKHHDGFCLFDTNTTDYKSTNAACKRDIVKDLSDECKKQGLAFGIYFSWIDWHFSEAAAISSHNSDPIPSSHQRLNIAQLTELLSNYGPMCELWMDMGAPTAEQSQEVYDLVQSLQPQCMVNGRIWNDKQDFLTMGDNQLPAVPLNCPWQTPASIYKETWGYRSWQVRGDRDEKIQELSDTARKVVQEGGNYLLNIGLMGTGAIQSFEQEVLEGIGTVLAKNPLKREQNKRILPKIVPGQLCAEPLVAYRYTGTEYYSYRPIPTTLCWALQLNEDTSICIGWESDQGLAREQKLCLEIAGKQYYSSLQKGRTSDTFITALKLKKGKHEICLHTIGDELKRPELVDTTLRLVLRKEGK
Km (purified protein [2]): 495.20 ± 171.80 µM
kcat (purified protein [2]): 2.4117 s⁻¹

B2: NyGH29^4A (Niastella yeongjuensis) (protein)
chain: QTYSPNWESLDARPAPQWFKDAKFGIFIHWGVYSVPAWAPVGKDYAVYSKYSEWYWNRLVTDSSKVGKAFRAYHNSTYGPNFKYQDFAPLFKAELFNPEQWADVFKNAGAQYVVLTSKHHDGFALWPSAEAWNWNAADVGPHKDLAGELTNAVKEKGLHMGFYYSLYEWFNPLYKSDIDKYVSEHMMPQLKDLVNRYKPDIIWPDGEWEHPSETWKSTQFLAWLYNESPVKNTVVVNDRWGKETRSKHGGYYTTEYDIVHNEDASKKQFEHPWEECRGIGGSFGYNRNETLGDYETSDAVIHMLIQKVARGGNLLLDIGPAADGTIPVIMQQRLADMGAWLKTNGEAIFGTTATKQPSINGAWFTQKNMDLYVILTAKMDKPLTFDLATAPGKATLLGVNKKVTVSYRSGKCTINPLELYPNLPAGGYAWVIKLEGAAGK
Km (purified protein [3]): 279.80 ± 10.820 µM
kcat (purified protein [3]): 0.00383 s⁻¹

B3: StGH29^nc (Sphingopyxis terrae subsp. ummariensis) (protein)
chain: AATVTGAGLGPQPRFPITGLPVLNPILRLYPEKSVFRSGDIRFGVGELEMMIPFLGTGEIVWSVNVSEAKRYRIALCYSTVNETQPVTISVNGQDVPFAAPRTKGYFIPHPEGPVDDPGDPDTDGFWRMREYYLFERKPVAGEVDLVRGVNVVKLKVTAPKGKEAFRLRSIELTPVDKVAEIEADLTRQRANRANTDWFANAGYGMWFHFLDLTTPRVGPRKSYEDAVNALDVPKLAKMVDDCGARYLIWTVNHGNPTCPAPIKAWERLHPGMTTKRDLIMELADELAKYNIELMLYQNCPGTGGLIQQHQRAIDTPTFSEVEYANQLIDVFNEFGARYGTKVKGWWLDSWFQTMESYPNLPNEAINRAIKSGNRNCMSSFNGWAFPNEVECQDYWCGEITDLPAKPFGARYLKDGPAAGLQAHSAIKLDAPWFHVTENMEMEPPLYSARELADYIAICQRDQAPVTLGVGIYQDGTIGPKSYAVLTELRGLIRKGKARR
Km (purified protein [4]): 290.60 ± 19.810 µM
kcat (purified protein [4]): 0.00733 s⁻¹

B4: RiGH29^2A (Roseburia intestinalis) (protein)
chain: MSEQQKEQQLLETVDRIIAEGPYQPAWSSLMQTKTPDWFKQKRFGIFIHWGVYSVPANSNEWYPRNMYIEGMPAYEHHIKTYGSQKDFGYKDFIPMFHAEKFDPAEWVRLFKEAGAGYVFPVAEHHDGFQMYKSELSHWNSAEMGPKRDVLGELKAEIEKQGLTFCTSSHRAEHWFFLGHGKEFDSDIKEPLQKGDLYWPSMPEPDAEDLYGEPYPTEEFLNDWLARTAEIILNYKPSLLYFDWWVQHQAFKPYLKKLAAFYYNCGVKWGKDVKICYKHDAMMFGSGIVEVERGGFAEAKPYDWQTDTAVARNSWCYTDTLDYKSSNEIICTLVDVVSKNGNLLLNIGPKADGTIPDGDRAILEDLAKWMKVNSEAVIGANVWRKSMEGPTAAAEGQFQDQKELKFTNKDYRFTINHGNIYAIALQCPKDGVFCIRSLADSSDQNVPEFHGIIESVDILGYDGRLQWSVDGEGLHVTAPGIDSEFPVVVRVRPE
Km (purified protein [5]): 302.30 ± 7.0500 µM

B5: BaGH29^26A (Bifidobacterium asteroides) (protein)
chain: MSDTVEWFKQAKYGMMIHWGLYSLLGGEYQGKSSSNYAEWVQSKLQIPNKEYERLTQAFNPIYFDADAIIDLAKRCGMQYLVVTTKHHDGFAMYRSLVDPYNVYDATPFHRDVIGELSLACRKAGLRFGLYYSQDLDWHEPDGGGYLSNDIETAGTTWDNSWDFTGEKNYDRAFKHKIMPQIEEIMSNYGEISVAWFDVPMTLSDEQSQTIYDTVKRLQPDCLINSRLGNGRYDYVSLGDNEIPEDSDASDKATSDGNVDYNSIEGFKPSKLGLYETAGTINDSWGFAYHDQNWKSPQTIHDYKAHLNKYGINYLLNVGLDGLGRVPMAAEQALLGARALEA
Km (purified protein [6]): 222.00 ± 20.100 µM
kcat (purified protein [6]): 12.108 s⁻¹

B6: PgGH29^1B (Porphyromonas gingivalis ATCC 33277) (protein)
chain: GQGQEVYYPGSVVFPADATLEQKVEMAAKVVPTLQQLAWQQMELTAFLHFGINTFTDSEWGDGKEDPALFNPVELDARQWVRILHEAGFRMVILTAKHHDGFCLWPTATTRHSVASSPWREGKGDVVKEVRAACEEYGMKFGIYLSPWDRNAECYGDSHRYNRFFVSQLTELLTHYGEVHEVWFDGANGEGPNGKRQEYDWETFYDTIRRLQPQAVMAIMGDDVRWVGNERGLGRTTEWSATVLTPGIYSRSKTERNRLGIRENSPDLGSREVLKEAGEIFWYPSEVDVSIRPGWFYHAAEDKKVKSLDKLVDIYFQSVGYNSVLLLNVPPDRRGLIHEADALRLKEWADYLGRAFAHDRVVDSARYAVVQEHAVEEYALESKTHINILMLQEDITKGQRTEAFTVEAWVDGAWQEIGRGTTIGYKRLLRIPAVETDRIRVRIEQCRLPVNLCRVAVYYAEPPEQVVADESWNDIPRADWKLLSDDPLTIDLGREVMLRAFTYAPYKAEAKPTTAVRYRLAVSEDGRQWREIPTMGEFANVINNPLPQTVDMNQIVRTRFIRLDATAASGDKAVITMQEIGVTVE
Km (purified protein [7]): 302.10 ± 9.6900 µM
kcat (purified protein [7]): 1.8767 s⁻¹

B7: SmGH29^1B (Streptococcus mitis B6) (protein)
chain: MVREIKPHGPLPSQAQLAYLEDELAAFIHFGPNTFYDQEWGTGQEDSERFNPTRLDAREWVRVLKEMGFKKLILVVKHHDGFVLYPTAYTDYSVKASPWRNGEGDLLLEVSQAATEFDMDMGVYLSPWDAHSPLYHVDQEADYNAYYLAQLKEILSNPAYGNGGKFAEVWMDGARGEGAQKVNYEFEKWFETIRDLQGDCLIFSTEGTSIRWIGNERGYAGDPLWQKVNPDKLGTEAALDYLQHGDSSGTIFSIGEADVSIRPGWFYHEEQDPKSLEELVEIYFHSVGRGTPLLLNIPPNQDGLFDEKDIKRLYEFATYRNELYKEDLALGAKVYGPALSADFACHHLTDGLESSSWASDADLPIQLELDLGFPKTFDVIELREDLKLGQRIAAFHVQVEVDGVWQEFGTGFTVGHKRLLRGPLVEAQKVRVMITESQDLPVLTKISLYKTPSLSQKEVVQGLAFAEKSLSVAKGETLHFRIERSESNTPLEAKISIQPGTGVHGIAYQDEIQVLQFQAGESKKDLCLPTLHFAADKTLDFYLNLTVDGQLVDQLQVQVS
Km (purified protein [8]): 289.50 ± 14.610 µM
kcat (purified protein [8]): 0.865 s⁻¹

B8: TfFuc1^8A (Tannerella forsythia 92A2) (protein)
chain: PAQPGYTPSADNLKARETFQDDKFGIFIHWGIYSMLADGEWVMHNKNLNWEEYAKLASGFYPAKFNAAEWVAAIKASGAKYITITSRHHDGFSMYATQQSDYNIVDATPFKRDVIHELADECRKQGIRLHLYYSHLDWRRDDYYPLGRTGKGTGRTTQGKWEDYCAFMNNQLTELLTNYGLIGAIWFDGMWDKDIYPDGMTAKTWNLNEQYTLIHRLQPACLIGNNHHITPFAGEDIQIFERDLPGENKAGLSGQDISRLPLETCETMNGMWGYKITDQDYKSTKILIQYLVKAAGKNANLLMNVGPQPNGELPTVAVQRLREMGEWMKIYAPTIQGTRGGVVTPRDWGVTTQKGKTLYVHVLNLDDKALFLPYAGNKLKSAVEYQSRKSVRFIQDRDGILLKFTDKPHSPDYVLELTFANELPLN
Km (purified protein [9]): 153.70 ± 21.810 µM
kcat (purified protein [9]): 8.9117 s⁻¹
